According to article PMC3496974 (MicrobiologyOpen, 2012):

What was measured:
SEC = biological target: the molecule itself; assay: SEC
PanZ(N45A)-His = biological target: T1, PanZ(N45A)-His (E. coli, UniProt P37613 1-127, N45A); assay: SEC
T1 sequence: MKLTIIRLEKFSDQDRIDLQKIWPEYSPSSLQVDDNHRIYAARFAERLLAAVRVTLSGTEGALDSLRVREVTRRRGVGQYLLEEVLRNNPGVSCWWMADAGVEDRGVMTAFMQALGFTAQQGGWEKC

binding result (PanZ(N45A)-His): binds
B1: PanD, unactivated proenzyme (native, untagged) (enzyme, E. coli, UniProt P0A790 1-126, looked up)
chain: MIRTMLQGKLHRVKVTHADLHYEGSCAIDQDFLDAAGILENEAIDIWNVTNGKRFSTYAIAAERGSRIISVNGAAAHCASVGDIVIIASFVTMPDEEARTWRPNVAYFEGDNEMKRTAKAIPVQVA
stoichiometry N (SEC): 4
